The values that follow come from patent US20160369006A1 (published 2016).

This test deals with WT1 peptide … presented by HLA-A0201 (human;). Kind of test: 125I-labeled antibody saturation cell binding; JMN cells.

B1: ESK1 wildtype IgG1 (antibody, V domains shown)
VH: QMQLVQSGAEVKEPGESLRISCKGSGYSFTNFWISWVRQMPGKGLEWMGRVDPGYSYSTYSPSFQGHVTISADKSTSTAYLQWNSLKASDTAMYYCARVQYSGYYDWFDPWGQGTLVTVSS
VL: not shown
On to B1, for which the Kd (as a rule, the free concentration of one partner at which half of the binding sites on the other are occupied at equilibrium, for simple one-to-one binding) is 0.2 nM.
